EC50 of the cGMP response (absorbance, Direct Cyclic GMP Enzyme Immunoassay Kit) to a guanylin dose-response, 30 min, GC-C-expressing 293T cell line and cGMP level in the GC-C-expressing cell line treated with low concentrations of guanylin data for one substance are collected here from patent US20120015841A1.

For this assay, the target named is human GC-C (guanylate cyclase C) stably expressed in 293T cells (human) (UniProt P25092). The assay is described as follows: cell-based or functional assay.
Sequence of human GC-C (guanylate cyclase C) stably expressed in 293T cells (human) (P25092 24-1073): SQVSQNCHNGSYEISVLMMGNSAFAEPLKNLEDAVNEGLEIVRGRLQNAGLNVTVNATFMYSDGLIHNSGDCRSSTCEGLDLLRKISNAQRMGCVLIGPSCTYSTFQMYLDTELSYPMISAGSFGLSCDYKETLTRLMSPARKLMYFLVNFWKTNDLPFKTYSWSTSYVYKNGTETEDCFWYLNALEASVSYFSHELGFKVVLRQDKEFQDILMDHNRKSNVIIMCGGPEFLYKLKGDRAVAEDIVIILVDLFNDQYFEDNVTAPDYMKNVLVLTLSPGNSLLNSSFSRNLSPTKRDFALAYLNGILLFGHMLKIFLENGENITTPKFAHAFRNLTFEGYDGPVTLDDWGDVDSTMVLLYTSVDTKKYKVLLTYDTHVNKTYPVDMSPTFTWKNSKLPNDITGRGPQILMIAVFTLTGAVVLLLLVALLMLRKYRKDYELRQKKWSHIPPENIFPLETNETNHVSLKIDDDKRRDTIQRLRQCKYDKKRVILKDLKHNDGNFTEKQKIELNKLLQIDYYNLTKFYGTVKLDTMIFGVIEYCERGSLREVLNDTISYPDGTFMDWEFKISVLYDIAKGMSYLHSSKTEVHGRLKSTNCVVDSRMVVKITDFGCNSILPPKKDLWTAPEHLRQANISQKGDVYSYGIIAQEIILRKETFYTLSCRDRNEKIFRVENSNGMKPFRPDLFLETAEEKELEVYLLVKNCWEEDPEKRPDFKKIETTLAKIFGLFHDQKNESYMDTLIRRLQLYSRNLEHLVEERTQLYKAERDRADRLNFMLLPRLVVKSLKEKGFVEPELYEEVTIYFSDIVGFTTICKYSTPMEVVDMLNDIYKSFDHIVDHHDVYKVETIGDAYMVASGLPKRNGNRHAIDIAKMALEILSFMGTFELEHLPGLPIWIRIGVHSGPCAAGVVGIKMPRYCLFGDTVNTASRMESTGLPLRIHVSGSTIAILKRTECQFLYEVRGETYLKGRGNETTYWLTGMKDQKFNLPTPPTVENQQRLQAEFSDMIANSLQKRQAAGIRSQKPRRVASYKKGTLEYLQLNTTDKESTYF

With guanylin (peptide), the EC50 of the cGMP response (absorbance, Direct Cyclic GMP Enzyme Immunoassay Kit) to a guanylin dose-response, 30 min, GC-C-expressing 293T cell line was found to be 1.1 nM and the cGMP level in the GC-C-expressing cell line treated with low concentrations of guanylin was 6 pmol/mL.
